Drawing on PMC2172933, this text covers percent of the amount of spectrin that coprecipitated with NCAM180 (set to 100%) for 1 substance.

This assay addresses neural cell adhesion molecule 140 (NCAM140), rat, expressed in CHO cells (rat) (UniProt P13596). The experiment in a line: co-IP.
Sequence of UniProt P13596 (P13596 20-858): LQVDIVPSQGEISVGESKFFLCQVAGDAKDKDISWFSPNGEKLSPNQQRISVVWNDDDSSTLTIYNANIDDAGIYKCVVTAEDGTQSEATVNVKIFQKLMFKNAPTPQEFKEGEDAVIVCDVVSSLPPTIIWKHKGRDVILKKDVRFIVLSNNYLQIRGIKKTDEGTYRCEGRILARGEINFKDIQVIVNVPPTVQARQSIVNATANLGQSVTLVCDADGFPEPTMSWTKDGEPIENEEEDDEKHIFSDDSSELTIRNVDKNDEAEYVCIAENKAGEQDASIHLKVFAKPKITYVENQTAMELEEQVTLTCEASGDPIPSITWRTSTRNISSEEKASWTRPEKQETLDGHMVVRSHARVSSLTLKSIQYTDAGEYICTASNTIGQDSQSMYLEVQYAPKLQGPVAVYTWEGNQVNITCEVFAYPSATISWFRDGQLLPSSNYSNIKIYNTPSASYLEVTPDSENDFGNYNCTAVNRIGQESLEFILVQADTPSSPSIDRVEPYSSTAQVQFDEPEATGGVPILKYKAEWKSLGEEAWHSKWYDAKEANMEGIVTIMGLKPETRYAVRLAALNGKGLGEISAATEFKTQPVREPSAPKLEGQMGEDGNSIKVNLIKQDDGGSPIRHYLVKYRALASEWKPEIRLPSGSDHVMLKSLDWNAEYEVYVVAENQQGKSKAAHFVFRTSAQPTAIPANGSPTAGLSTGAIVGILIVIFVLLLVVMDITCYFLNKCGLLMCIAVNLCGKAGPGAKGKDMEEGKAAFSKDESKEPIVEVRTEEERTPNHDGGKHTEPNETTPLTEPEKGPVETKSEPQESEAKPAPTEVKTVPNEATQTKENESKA

For “βI spectrin, endogenous in CHO cells, A0A9J7GYU9 1-2329”, the percent of the amount of spectrin that coprecipitated with NCAM180 (set to 100%) was 69.8%.
